Test results reported in US11780927B2, “Anti-CD40 antibodies for use in prevention of graft rejection” (NOVARTIS AG, priority 2018, dated 2023).
Where “and” joins values, the source holds several entries; their conditions need not be identical. Identical values can stand only once.

Legend:
[1] = system: transplanted kidney grafts; test: Allograft biopsies scored by Chronic Allograft Damage Index (CADI); format: in vivo, human; details: final biopsy
Excerpt: The quality of the graft was estimated using the Chronic Allograph Damage Index (CADI) (Isoniemi et al. 1992 and 1994), where scores of ≤1 reflects normal renal histology and higher scores correlate with poor long-term outcome (Hayry et al. 2004, Yilmaz et al. 2007, Yilmaz et al. 2003). Pristine renal histology was found in 3 of 5 patients on iscalimab (60%) and in none of the 7 treated with tacrolimus (0%). The average CADI was 1.60±0.60 for CFZ533 (n=5) vs. 5.14±0.80 for tacrolimus (n=7), (mean±SEM, p<0.01 using Student t)
A PoC Study in de Novo Renal Transplantation (CCFZ533X2101/NCT02217410) using CFZ533 was performed. […] Allograft biopsies were performed on a subset of study patients. A pathologist, blinded to therapy, reviewed and scored all biopsy slides using the established Banff criteria and calculated the chronic allograft damage index (CADI, Nickerson P et al., Legendre C et al., Seron D et al.,). A CADI of 1 or less was considered as ‘normal renal histology’. Two patients were excluded from the analysis, since they switched therapy after only 2 months. […] The average CADI at final biopsy was 1.6±0.6 for CFZ533 and 5.1±0.8 for tacrolimus, p<0.01.

CD20pos B cells = test: In vitro B cell depletion in human whole blood; format: cell-based; details: 72 hours; Rituximab 50 μg/ml, CFZ533 dose titration
Description: See supplementary material for detailed methods. Briefly, the ability of CFZ533 to mediated depletion of CD20^pos B cells was monitored in human whole blood over a period of three days in comparison to the B cell depleting antibody Rituximab. For CDC, CFZ533 or Rituximab were incubated with RAJI B cells in the presence or absence of rabbit complement and cell lysis was assessed by luminescence.
B cells numbers were determined based on CD45pos and CD19pos events falling within lymphocyte FSC (forward-scattered light)/SSC (side-scattered light) gate. Results for individual antibody concentrations were calculated as percent remaining B cells with reference to untreated samples and graphed as a function of log-transformed antibody concentration (adjusted to 100% and shown as a dotted line). Data represent the mean and SD of eight independent donors. […] Concentration dependent killing of the Raji cells was analyzed after 2 hours, where the viability of the cells was measured by determination of the ATP concentration in each well using luciferase. Results are presented as isotype-control normalized relative luciferase units (RLU) as a function of log-transformed antibody concentration.

recombinant human CD40 = recombinant human CD40 (Homo sapiens, UniProt P25942); test: Surface plasmon resonance analysis of affinity for CD40; format: binding; details: SPR, 25° C.
Description: The binding analyses of recombinant CFZ533 were performed at 25° C. with HBS−EP+ as running buffer. A typical binding analysis cycle consisted of three steps: (i) capture of the antibody via ProteinA immobilized on the chip surface, (ii) binding of CD40 antigen to the captured anti-CD40 antibody, and (iii) regeneration of the ProteinA surface. To determine the kinetic rate constants of the antigen-antibody binding interactions, binding data were processed, double referenced with responses from blank injections. The binding curves were fitted locally using the 1:1 interaction model of the Biacore T100 Evaluation software to determine kinetic rate constants. The value for the equilibrium dissociation constant (KD) was calculated as the ratio of the rate constants kd/ka. All binding measurements were performed in two independent experiments.

human B cell line RI-1 = test: Internalization by image flow cytometry; format: cell-based; details: 3 hours at 37° C.
Description: Internalization of fluorescently tagged CFZ533 and rCD154 was assessed in vitro using the human B cell line RI-1 (Th'ng et al, 1987). CD40 dependence of CFZ533 internalization was assessed using a CD40 knockout RI-1 cell line. Internalization was assessed using an Amnis® image flow cytometer (Merck KHaA, Darnstadt) according to the manufacturer's instructions and data analyzed using ImageStream®^X software.
FIG. 8B. Relative internalization erode of CFZ533 and rCD154 under permissive conditions (non-permissive erode values subtracted). Each dot represents data from an individual experiment and the population mean is indicated as a horizontal red line. FIG. 8C. Representative images of individual CD40 expressing or CD40 knock-out RI-1 cells cultured with Alexa488 labeled CFZ533 for 3 hours at 37° C. In all experiments, cells were co-stained with AlexaFlour 647 labeled CD45 to demark the cell membrane.

Sequence of recombinant human CD40 (P25942 21-277): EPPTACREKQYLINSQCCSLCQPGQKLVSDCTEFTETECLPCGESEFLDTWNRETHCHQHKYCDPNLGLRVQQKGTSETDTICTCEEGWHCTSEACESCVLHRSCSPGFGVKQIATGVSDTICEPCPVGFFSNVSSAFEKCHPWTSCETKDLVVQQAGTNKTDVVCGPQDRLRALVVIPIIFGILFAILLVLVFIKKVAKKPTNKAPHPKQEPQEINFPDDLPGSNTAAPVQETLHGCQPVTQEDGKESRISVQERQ

`C=CC[C@@H]1/C=C(\C)C[C@H](C)C[C@H](OC)[C@H]2O[C@@](O)(C(=O)C(=O)N3CCCC[C@H]3C(=O)O[C@H](/C(C)=C/[C@@H]3CC[C@@H](O)[C@H](OC)C3)[C@H](C)[C@@H](O)CC1=O)[C@H](C)C[C@@H]2OC` [tacrolimus, reference compound] was tested, and the “average CADI (mean±SEM)” value [1] was 5.14±0.80 and 5.1±0.8.

“Rituximab: depleting anti-CD20 antibody [reference compound]” was tested, and the “B cells eliminated in human whole blood” value (CD20pos B cells) was “approximately 80%”.

With “HCD122: parental antibody, wild-type IgG1 version of CFZ533 [reference compound]” the “ka [1/Ms]” value (recombinant human CD40) was 2.84 ± 0.67 × 10^5 1/Ms and the “kd [1/s]” value (recombinant human CD40) was 1.26 ± 0.03 × 10^−4 1/s.

B1: rCD154: recombinant human CD154, the CD40 ligand (protein)
chain: MQKGDQNPQIAAHVISEASSKTTSVLQWAEKGYYTMSNNLVTLENGKQLTVKRQGLYYIYAQVTFCSNREASSQAPFIASLCLKSPGRFERILLRAANTHSSAKPCGQQSIHLGGVFELQPGASVFVNVTDPSQVSHGTGFTSFGLLKL
In the case of B1, the “Internalization by RI-1 B cells” value (human B cell line RI-1) is reported as “internalized”.
